For orientation: stoichiometry N means a count of units in the complex or per binding partner.

Several values for one entry are separate records, joined by “and”; a condition that tells them apart may be missing. Equal values may be shown once.

Data set [1] addresses SPARTA heterodimer (TIR-APAZ/short pAgo complex) from Crenotalea thermophila (Crenotalea thermophila). As to the kind of experiment: cryo-EM structure; SPARTA oligomer bound to gRNA/tDNA, nominal 3.15-3.35 Å.
For data set [2] the target is unchanged. As to the kind of experiment: mass photometry; CrtSPARTA incubated with gRNA/tDNA (5 mM MgCl2, 55 °C, 12 hours), 100-fold diluted, in 20 mM HEPES pH 7.5, 100 mM KCl, 2 mM DTT.
The target in data set [3] is T1, CrtSPARTA TIR-APAZ;CrtSPARTA short pAgo (CrtAgo) (Crenotalea thermophila;Crenotalea …, UniProt A0A1I7NFG5;A0A1I7NFD7 1-450;1-507, |).
T1 sequence 1: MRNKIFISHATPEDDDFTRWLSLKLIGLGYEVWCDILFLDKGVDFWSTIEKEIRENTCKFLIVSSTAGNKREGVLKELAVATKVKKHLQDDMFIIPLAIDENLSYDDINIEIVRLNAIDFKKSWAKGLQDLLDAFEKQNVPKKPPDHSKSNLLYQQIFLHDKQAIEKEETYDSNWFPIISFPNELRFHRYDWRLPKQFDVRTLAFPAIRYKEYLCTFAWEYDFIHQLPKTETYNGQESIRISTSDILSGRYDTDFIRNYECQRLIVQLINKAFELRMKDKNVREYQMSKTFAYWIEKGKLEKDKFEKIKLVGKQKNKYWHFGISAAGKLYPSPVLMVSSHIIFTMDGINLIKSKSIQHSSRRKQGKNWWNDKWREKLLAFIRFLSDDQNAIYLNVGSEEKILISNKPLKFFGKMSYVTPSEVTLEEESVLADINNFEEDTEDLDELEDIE
T1 sequence 2: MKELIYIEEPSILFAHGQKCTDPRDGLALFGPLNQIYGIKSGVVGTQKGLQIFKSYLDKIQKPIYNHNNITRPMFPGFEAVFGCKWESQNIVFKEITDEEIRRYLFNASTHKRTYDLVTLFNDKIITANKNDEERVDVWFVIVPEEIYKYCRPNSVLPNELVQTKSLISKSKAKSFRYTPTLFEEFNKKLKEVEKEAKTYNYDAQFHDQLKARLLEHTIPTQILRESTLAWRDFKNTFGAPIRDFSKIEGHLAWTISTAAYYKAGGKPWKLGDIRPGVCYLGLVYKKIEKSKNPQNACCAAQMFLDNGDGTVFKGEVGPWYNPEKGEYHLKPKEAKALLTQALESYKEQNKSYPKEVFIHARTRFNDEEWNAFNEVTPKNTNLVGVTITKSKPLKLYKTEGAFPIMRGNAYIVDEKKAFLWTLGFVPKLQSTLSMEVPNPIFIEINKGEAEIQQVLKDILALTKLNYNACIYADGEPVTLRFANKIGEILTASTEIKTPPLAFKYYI
Description: cryo-EM structure; 5 mM MgCl2; Mg2+ seen in MID pocket; 4 heterodimers, one duplex each; 20 mM HEPES pH 7.5, 100 mM KCl, 1 mM DTT, 5 mM MgCl2; 1.5 mg/ml SPARTA, 16 uM gRNA 37 C 1 h, then 16 uM tDNA 55 C 12 h. Conditions: protein: recombinant;recombinant; tags: 6xHis-MBP removed by TEV;none stated on this chain; copies: 1;1; 21 bp; tDNA 5' overhang 23 nt and 3' overhang 1 nt; guide loaded first, then target.

The target in data set [4] is T2, CrtSPARTA TIR-APAZ;CrtSPARTA short pAgo loop10-9 deletion (Crenotalea thermophila;Crenotalea …, UniProt A0A1I7NFG5;A0A1I7NFD7 1-450;1-507, |del322-327).
T2 sequence 1: T1 sequence 1
T2 sequence 2: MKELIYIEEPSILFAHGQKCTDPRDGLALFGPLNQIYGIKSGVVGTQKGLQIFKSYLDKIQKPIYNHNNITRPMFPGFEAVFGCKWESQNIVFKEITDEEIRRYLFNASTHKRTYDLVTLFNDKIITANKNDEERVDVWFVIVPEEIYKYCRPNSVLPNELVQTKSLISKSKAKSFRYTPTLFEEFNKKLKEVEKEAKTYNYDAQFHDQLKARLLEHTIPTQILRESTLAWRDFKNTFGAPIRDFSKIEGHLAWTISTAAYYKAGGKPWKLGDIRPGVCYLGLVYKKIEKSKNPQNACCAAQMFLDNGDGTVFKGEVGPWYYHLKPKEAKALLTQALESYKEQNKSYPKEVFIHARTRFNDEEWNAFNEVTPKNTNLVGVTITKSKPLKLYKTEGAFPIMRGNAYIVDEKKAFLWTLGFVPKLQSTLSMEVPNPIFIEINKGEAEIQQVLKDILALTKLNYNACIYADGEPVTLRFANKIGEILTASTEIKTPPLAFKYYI
Description: mass photometry; binds as single heterodimer (~134.6 kDa, expected 132.6); loses dimer formation; 20 mM HEPES pH 7.5, 100 mM KCl, 1 mM DTT, 5 mM MgCl2; 1.5 mg/ml SPARTA, 16 uM gRNA 37 C 1 h, then 16 uM tDNA 55 C 12 h. To be noted: protein: recombinant;recombinant; tags: 6xHis-MBP removed by TEV;none stated on this chain; copies: 1;1; 21 bp; tDNA 5' overhang 23 nt and 3' overhang 1 nt; guide loaded first, then target.

Turning to “SPARTA heterodimer (TIR-APAZ/short pAgo complex) from Crenotalea thermophila”, the stoichiometry N was 4 in data set [1]; 2 and 4 in data set [2].

B1: gRNA/tDNA duplex (DNA:RNA)
RNA: UGAGGUAGUAGGUUGUAUAGU
DNA: AAACGACGGCCAGTGCCAAGCTTACTATACAACCTACTACCTCAT
modifications: 5'-phosphate on guide RNA
Regarding B1, the binding result in data set [3] and in data set [4] was “binds” throughout.

Source of the values: PMC11156904, “Nucleic acid mediated activation of a short prokaryotic Argonaute immune system”.
